According to US20240317826:

B1: HIV-1NL4-3 integrase (IN), wild type, in virus / GagPol (protein)
chain: FLDGIDKAQEEHEKYHSNWRAMASDFNLPPVVAKEIVASCDKCQLKGEAMHGQVDCSPGIWQLDCTHLEGKVILVAVHVASGYIEAEVIPAETGQETAYFLLKLAGRWPVKTVHTDNGSNFTSTTVKAACWWAGIKQEFGIPYNPQSQGVIESMNKELKKIIGQVRDQAEHLKTAVQMAVFIHNFKRKGGIGGYSAGERIVDIIATDIQTKELQKQITKIQNFRVYYRDSRDPVWKGPAKLLWKGEGAVVIQDNSDIKVVPRRKAKIIRDYGKQMAGDDCVASRQDED
B2: HIV-1NL4-3 integrase R228A, in virus (protein)
chain: FLDGIDKAQEEHEKYHSNWRAMASDFNLPPVVAKEIVASCDKCQLKGEAMHGQVDCSPGIWQLDCTHLEGKVILVAVHVASGYIEAEVIPAETGQETAYFLLKLAGRWPVKTVHTDNGSNFTSTTVKAACWWAGIKQEFGIPYNPQSQGVIESMNKELKKIIGQVRDQAEHLKTAVQMAVFIHNFKRKGGIGGYSAGERIVDIIATDIQTKELQKQITKIQNFRVYYADSRDPVWKGPAKLLWKGEGAVVIQDNSDIKVVPRRKAKIIRDYGKQMAGDDCVASRQDED
B3: HIV-1NL4-3 integrase W235E, in virus (protein)
chain: FLDGIDKAQEEHEKYHSNWRAMASDFNLPPVVAKEIVASCDKCQLKGEAMHGQVDCSPGIWQLDCTHLEGKVILVAVHVASGYIEAEVIPAETGQETAYFLLKLAGRWPVKTVHTDNGSNFTSTTVKAACWWAGIKQEFGIPYNPQSQGVIESMNKELKKIIGQVRDQAEHLKTAVQMAVFIHNFKRKGGIGGYSAGERIVDIIATDIQTKELQKQITKIQNFRVYYRDSRDPVEKGPAKLLWKGEGAVVIQDNSDIKVVPRRKAKIIRDYGKQMAGDDCVASRQDED

Assays:
[1] = target: INI1 of 293 T producer cells (endogenous), Q12824

| Protein | INI1 incorporation into HIV-1 virions (Western blot of concentrated virions) [1] | INI1 incorporation into HIV-1 virions (Western analysis of concentrated virions) (SP38 stapled peptide) |
| --- | --- | --- |
| B1 | wild type virus (FIG. 18c lane 2) ... incorporated INI1 | INI1 was not incorporated into HIV-1 virions produced in the presence of SP38 |
| B2 | but not the W235E and R228A mutant virions incorporated INI1 |  |
| B3 | but not the W235E and R228A mutant virions incorporated INI1 |  |
